Laboratory results from publication PMC2615004.

Target: photosynthetic reaction center from Rhodobacter sphaeroides, native (strain R26) (Rhodobacter sphaeroides) (UniProt P0C0Y8)
Assay: flash absorption spectroscopy

cytochrome c2 from Rhodobacter sphaeroides (from UniProt P0C0X8 1-124) (natural protein)
dH: 54 meV
